Measured values taken from article PMC8192573.

Molecular target: OsBOR3_(∆1–642) (Oryza sativa)
Assay: cryo-EM structure; OsBOR3 (1 mg/mL) in 20 mM Tris (pH 7.5), 150 mM NaCl, 0.75x CMC LMNG on Quantifoil grids; 116,140 particles; 3D refinement with C2 symmetry imposed; 5-6 Å

stoichiometry N: 2
Substance: OsBOR3_(∆1–642) (domain or fragment)
